Assay [1] relates to patient-derived xenograft models of pancreatic cancer. Particulars: cited from earlier work.
Another assay concerns MDA-MB-175-VII cells. Description: WST-1 metabolic activity, parental and pertuzumab resistant cells (Example 5). The assay is classed as cell-based, human. Particulars: 96 hours. The procedure:
Cells were split once or twice a week in order to keep cells in exponential growth. The level of resistance was tested every month in a WST-1 viability assay as described in Example 2, until a pool of resistant cells was established.
Metabolic activity was determined after 96 hours incubation using a similar WST-1 assay as described in Example 2.
(In general: Tetrazolium assays rely on reduction of a dye to a coloured formazan, in cell work by metabolically active cells.)

The subject of assay [2] is EGFR, HER2 and HER3 in H292 cells. Put plainly: Western blot of EGFR, HER2 and HER3 in whole cell lysates (Example 6). The note with it: H292, 20 μg/ml, 48 hour. In kind it is cell-based, human. (In general: In western blotting, separated proteins are transferred to a membrane and probed.)
The test system of a further assay is cynomolgus EGFR. Put plainly: Kinetic binding analysis by surface plasmon resonance (ProteOn XPR36, IgG capture). The note with it: Cynomolgus antigen. Here is the method: (§1) Kinetic binding analysis of the purified humanized variants was performed on a ProteOn™ XPR36 biosensor (BioRad, USA) employing an IgG capture assay as described by Canziani et al. (Anal. Biochem. (2004) 325:301-307) that allows for measurement of antibody affinities of whole IgG molecules against soluble antigen under monovalent conditions. Briefly, approximately 5000 resonance units (RU) of a monoclonal mouse anti-human IgG Fc antibody (GE Healthcare, Denmark) was conjugated to a GLC chip surface (BioRad, USA) according to the manufacturer's instructions, followed by capture of individual antibodies of the invention or a negative control on the anti-Fc sensor surface. […] Next, 250 μl monovalent antigen (Sino Biologicals) was injected at a flow rate of 50 μl/min in serial threefold dilutions from 100 nM stock to generate response curves. The chip surface was regenerated between cycles by stripping the captured antibody/antigen complexes off the surface with a 10-second injection of 3 M MgCl2 (GE Healthcare, Denmark) repeated three times. Finally, binding responses were fitted to a Langmuir 1:1 binding model for calculation of the on-rate (kon or ka), off-rate (koff or kd) and affinity (KD) constants using double referencing.
On the technique in general: SPR reads the build-up and loss of mass on a sensor chip optically.

In assay [3] the test system is A431NS, H358, FaDu, OE19, BT474, MDA-MB-175 VII, MCF-7, N87, HN5, MFE-280 cancer cell lines. Description: Viability assay (WST-1) of humanized variants with partner antibody and of six-antibody mixtures. The assay is classed as cell-based, human. Particulars: two cell lines per variant, 96 hours. Here is the method: Each humanized variant was tested in two cell lines and compared to the parental mixture of two chimeric antibodies and to a negative control antibody. […] In addition, a combination of six humanized variants (11294, 11302, 11249, 11145, 10738 and 11052; Humanized Pan-HER) was tested in a number of cell lines and compared to the combination of the six chimeric antibodies (1277, 1565, 4384, 4517, 5038 and 5082; Chimeric Pan-HER). The cell lines used, N87 gastric, FaDu head and neck, A431NS epidermoid, OE19 esophageal, HN5 head and neck, MDA-MB-175 VII breast and MFE-280 endometrial cancer, were selected on the basis of their previously determined dependency on the HER family receptors.
Prior to performing the viability assay the appropriate antibodies and antibody mixtures were diluted to a final total antibody concentration of 100 μg/ml in appropriate media supplemented with 0.5-2% FBS and 1% P/S (penicillin/streptomycin), yielding a final total antibody concentration of 50 μg/ml in the well containing the highest antibody concentration. A threefold serial dilution of the antibodies was then performed in a 384-well plate, followed by addition of relevant numbers of cells to the experimental wells. The MCF-7 cells were also stimulated with 1 nM heregulin beta. The plates were incubated for 4 days in a humidified incubator at 37° C. WST-1 reagent (Roche Applied Science, Mannheim, Germany) was added to the plates and the plates were incubated for 1-3 h at 37° C. Plates were transferred to an orbital plate shaker for one h and the absorbance was measured at 450 and 620 nm (reference wavelength) using an ELISA reader. The percentage of metabolically active cells (MAC) is calculated as a percentage of the untreated control as follows: […]

The next assay has as its system cynomolgus HER3. Description: Kinetic binding analysis by surface plasmon resonance (ProteOn XPR36, IgG capture). The note with it: Cynomolgus antigen. Here is the method:
as §1

For the next assay, the target named is T1, human HER3 (Homo sapiens, UniProt P21860).
T1 construct: against soluble antigen under monovalent conditions; purchased Sino Biologicals
Described as above. Particulars: Human antigen. The procedure: as §1

In assay [4] the test system is EGFR, HER2 and HER3 from humans, cynomolgus monkeys and mice, human and murine HER4. Description: Cross-reactivity ELISA with coated antigens. Particulars: OD at 450 nm, 40 nM antibody, compared to chimeric parent. The assay is classed as binding, mouse. Here is the method: Antibody-antigen binding was measured by ELISA with coated antigens. Human antigens were obtained from Sino Biologicals. All other antigens were produced in-house by transient expression in CHO or HEK293 cells. Chimeric and humanized antibodies, as well as an isotype control antibody, were incubated with the coated antigens at different concentrations. After wash, bound antibodies were detected by HRP-(horse radish peroxidase)-conjugated secondary antibodies. The OD signal from 40 nM antibody, measured at 450 nm using an ELISA reader, was scored from negative (−; OD<0.1) to strongly positive (+++; OD>2.5).

Assay [5] has as its system EGFR, HER2 and HER3 in OVCAR-8 cells. Put plainly: Western blot of EGFR, HER2 and HER3 in whole cell lysates (Example 6). The assay is classed as cell-based, human. Particulars: OVCAR-8, 20 μg/ml, 48 hour.

Where two headings read alike, the source gives them in different places.

Regarding `C#Cc1cccc(Nc2ncnc3cc(OCCOC)c(OCCOC)cc23)c1` [Erlotinib], the Erlotinib resistant result in assay [1] (model ST191) was “Yes”; in assay [1] (model ST334), “Yes”; in [1] (model ST383), “Yes”; in assay [1] (model ST385) it was “Yes”; in [1] (model STS021), “No”; in assay [1] (model STS058) it was “Yes”. In [1] (model STS059), the Erlotinib resistant result is “Yes”.
pertuzumab: the metabolic activity result with MDA-MB-175-VII cells (parental MDA-MB-175-VII cells) is “reduced”; in the assay with MDA-MB-175-VII cells (pertuzumab resistant MDA-MB-175-VII cells) it was “unaltered”.

B1: antibody 1277: chimeric parent anti-EGFR antibody disclosed in WO 2012/059857; VH SEQ ID NO: 15, light chain SEQ ID NO: 17 (antibody)
VH: RAEVQLVESGGGLVKPGESLKLSCAASGFAFSYSDMSWVRQTPEKRLEWVAYMSSAGDVTFYSDTVKGRFTISRDNAKNTLYLQVSSLKSEDTAIYYCVRHRDVAMDYWGQGTSVTVS
light: LADVVMTQTPLSLPVSLGDQASISCRSSQSLVHSNGNTYLHWYLQKPGQSPKLLIYKVSNRFSGVPDRFSGSGSGTDFTLKISRVEAEDLGVYFCSQSTHVPTFGGGTKLEIKRTVAAPSVFIFPPSDEQLKSGTASVVCLLNNFYPREAKVQWKVDNALQSGNSQESVTEQDSKDSTYSLSSTLTLSKADYEKHKVYACEVTHQGLSSPVTKSFNRGEC
On to B1, for which the “EGFR, HER2 and HER3 levels in whole cell lysates” value (from here on “EGFR, HER2 and HER3 levels”) in assay [2] was “HER2 upregulation”. In the assay on cynomolgus EGFR, this molecule gave a ka of 660000 M⁻¹ s⁻¹ and a kd of 0.00039 s⁻¹.

B2: antibody 11052: humanized anti-HER3 antibody from chimeric parent 5082; HC SEQ ID NO: 60, LC SEQ ID NO: 61 (antibody, V domains shown)
VH: QVQLQESGPGLVKPSQTLSLTCTVSGYSITSAYYWNWIRQFPGKGVEWMGYIGYSGRNTYNPSLKNRVTISRDTSKNQFSLKLSSVTAADTAVYYCSREGDYGYSDYWGQGTLVTVSS
VL: DIQMTQSPSSLSASVGDRVTVTCRASQDINNYLNWYQQKPGKAVKLLIYYTSRLQSGVPSRFSGSGSGTDYTLTISSLQPEDFATYFCQQSETLPWTFGQGTKLEIK
B2: the “anti-proliferative effect in combination with partner antibody, compared to mixture of the two chimeric parent antibodies” value in assay [3] is “highly similar anti-proliferative effects”. In addition, in the assay with cynomolgus HER3, the ka was 1.3e+06 M⁻¹ s⁻¹ and the kd was 0.00026 s⁻¹. In the assay with human HER3, this molecule returned a ka of 870000 M⁻¹ s⁻¹ and a kd of 0.00016 s⁻¹. Besides, the “cross-reactivity pattern with HER family antigens” value in [4] is “binding to the same human and cynomolgus antigen combined with lack of binding to the mouse antigen or to other EGFR family receptors”.

B3: MM-121: anti-HER3 treatment lane in the OVCAR-8 Western blot (antibody, chains of the INN, looked up)
heavy: EVQLLESGGGLVQPGGSLRLSCAASGFTFSHYVMAWVRQAPGKGLEWVSSISSSGGWTLYADSVKGRFTISRDNSKNTLYLQMNSLRAEDTAVYYCTRGLKMATIFDYWGQGTLVTVSSASTKGPSVFPLAPCSRSTSESTAALGCLVKDYFPEPVTVSWNSGALTSGVHTFPAVLQSSGLYSLSSVVTVPSSNFGTQTYTCNVDHKPSNTKVDKTVERKCCVECPPCPAPPVAGPSVFLFPPKPKDTLMISRTPEVTCVVVDVSHEDPEVQFNWYVDGVEVHNAKTKPREEQFNSTFRVVSVLTVVHQDWLNGKEYKCKVSNKGLPAPIEKTISKTKGQPREPQVYTLPPSREEMTKNQVSLTCLVKGFYPSDIAVEWESNGQPENNYKTTPPMLDSDGSFFLYSKLTVDKSRWQQGNVFSCSVMHEALHNHYTQKSLSLSPG
light: QSALTQPASVSGSPGQSITISCTGTSSDVGSYNVVSWYQQHPGKAPKLIIYEVSQRPSGVSNRFSGSKSGNTASLTISGLQTEDEADYYCCSYAGSSIFVIFGGGTKVTVLGQPKAAPSVTLFPPSSEELQANKATLVCLVSDFYPGAVTVAWKADGSPVKVGVETTKPSKQSNNKYAASSYLSLTPEQWKSHRSYSCRVTHEGSTVEKTVAPAECS
As to B3, the “EGFR, HER2 and HER3 levels” value in assay [5] is recorded as “HER2 up-regulation”.

B4: antibody 1565: chimeric parent anti-EGFR antibody disclosed in WO 2012/059857; VH SEQ ID NO: 19, light chain SEQ ID NO: 21 (antibody)
VH: RAEVQLQQSGTELVKPGASVILSCKASGYTFTSYWMQWVKQRPGQGLEWIGNINPSNGGTSFNEEFKSRATLTVDKSSSTAYMQLSSLTSEDSAVYYCARDGGLYDGYYFDFWGQGTTLTVS
light: LANIVMTQSHKFMSTLIGARVSITCKASQDVDTAVAWYQQKPGQSPKLLIYWASTRHTGVPDRFTGSGSGTDFSLTVSNVQSEDLTDYFCQQYSSYPLTFGAGTKLELKRTVAAPSVFIFPPSDEQLKSGTASVVCLLNNFYPREAKVQWKVDNALQSGNSQESVTEQDSKDSTYSLSSTLTLSKADYEKHKVYACEVTHQGLSSPVTKSFNRGEC
Regarding B4, the “EGFR, HER2 and HER3 levels” value in assay [2] is “HER2 upregulation”. In the assay with cynomolgus EGFR, the ka is 580000 M⁻¹ s⁻¹ and the kd was found to be 0.016 s⁻¹.

B5: antibody 10810: humanized anti-HER3 antibody from chimeric parent 5038; HC SEQ ID NO: 56, LC SEQ ID NO: 57 (antibody, V domains shown)
VH: QVQLQESGPGLVKPSQTLSLTCTVSGYSITSGFYWTWIRQHPGNGLEWIGFISYSGSNNYNPSLKNRVTISVDTSKNQFSLKLSSVTAADTATYYCARGGGYYGNLFDYWGQGTLVTVSS
VL: DIQMTQSPSSLSASVGDRVTITCRPSQDISNYVNWFQQKPGKAPKLLIFHTSRLHSGVPSRFSGSGSGTDFTLTISSLQPEDIATYYCQQGITLPWTFGQGTKVEIK
For the molecule B5, the “anti-proliferative effect in combination with partner antibody, compared to mixture of the two chimeric parent antibodies” value in [3] is listed as “highly similar anti-proliferative effects”. In the assay with cynomolgus HER3, this molecule came in with a ka of 470000 M⁻¹ s⁻¹ and a kd of 0.00034 s⁻¹. In the assay with human HER3, the ka stood at 190000 M⁻¹ s⁻¹ and the kd is 0.0002 s⁻¹. In addition, the “cross-reactivity pattern with HER family antigens” value in [4] is “binding to the same human and cynomolgus antigen combined with lack of binding to the mouse antigen or to other EGFR family receptors”.

Source of the values: US9527913B2, “Humanized pan-HER antibody compositions” (Symphogen A/S, priority 2012, dated 2016).
